Laboratory results: publication doi:10.1101/2024.06.02.596995

Columns and labels:
[1] = target: Armitage KEE-Flag (D. melanogaster) (UniProt Q6J5K9); assay: co-IP
[2] = target: Armitage ΔN34-Flag (D. melanogaster) (UniProt Q6J5K9); assay: co-IP

binding efficiency relative to WT Armi [1]: 34% | binding efficiency relative to WT Armi [2]: 20%
Substance: Daedalus (Daed), endogenous in OSCs (natural protein)
